{"source": "paper PMC3571956", "binders": {"B1": {"name": "Hemopexin, ProLabel fusion (natural protein)", "chain": "TPLPPTSAHGNVAEGETKPDPDVTERCSDGWSFDATTLDDNGTMLFFKGEFVWKSHKWDRELISERWKNFPSPVDAAFRQGHNSVFLIKGDKVWVYPPEKKEKGYPKLLQDEFPGIPSPLDAAVECHRGECQAEGVLFFQGDREWFWDLATGTMKERSWPAVGNCSSALRWLGRYYCFQGNQFLRFDPVRGEVPPRYPRDVRDYFMPCPGRGHGHRNGTGHGNSTHHGPEYMRCSPHLVLSALTSDNHGATYAFSGTHYWRLDTSRDGWHSWPIAHQWPQGPSAVDAAFSWEEKLYLVQGTQVYVFLTKGGYTLVSGYPKRLEKEVGTPHGIILDSVDAAFICPGSSRLHIMAGRRLWWLDLKSGAQATWTELPWPHEKVDGALCMEKSLGPNSCSANGPGLYLIHGPNLYCYSDVEKLNAAKALPQPQNVTSLLGCTH"}}, "key": {"[1]": {"target": "HEV ORF3 and GFP1 fusion protein (genotype 1) (hepatitis E virus genotype 1 (W2-1 strain))", "experiment": "co-IP; Matchmaker Chemiluminescent Co-IP System; 293FT cells co-transfected with pAcGFP1-ORF3 and pProLabel-prey, lysed at 48 h; precipitated with anti-HEV ORF3 polyclonal antibody; ProLabel chemiluminescence (RLU) read on the beads; three independent tests"}, "[2]": {"target": "HEV ORF3 and GFP1 fusion protein (genotype 1) (hepatitis E virus genotype 1 (W2-1 strain))", "experiment": "co-IP; Matchmaker Chemiluminescent Co-IP System; 293FT cells co-transfected with pAcGFP1-ORF3 and pProLabel-prey, lysed at 48 h; precipitated with anti-AcGFP (GFP1) polyclonal antibody; ProLabel chemiluminescence (RLU) read on the beads"}}}
{"binder": "B1", "values": [{"measurement": "chemiluminescent intensity", "setting": "[1]", "value": 1140, "unit": "RLU"}, {"measurement": "chemiluminescent intensity", "setting": "[2]", "value": 614, "unit": "RLU"}]}
